Where a chain is given by its changes, count along the chain named.
B1: 2E9 monoclonal antibody (antibody, V domains shown)
VH: QVQLQQSGPELVKPGASVKMSCKASGYTFTSNYIHWMKQRPGQGLEWIGWIYPGDGSSKYNEKFKGKTTLTADRSSSTAYMLLSSLTSEDSAIYFCANYFYAMDQWGQGTSVTVSR
VL: IVLTQSHKFMSTSVGDRVSITCKASQDVSTAVAWYQQKPGQSPKLLIYWASTRHTGVPDRFTGSGSGTDYTLTISSVQAEDLALYYCQQHYSTPWTFGGGTKLEIK
notes: 2E9 HC, whole heavy chain as printed: variable region with mouse IgG2a constant domains; 2E9 LC, whole light chain as printed; full-length mouse IgG2a; measured mass 147,603 Da; also called 2E9 mAb; 2E9 Ab; source: ExpiCHO-S, transfected, purified (HiTrap Protein A); copies: 2 + 2
B2: 1F2 monoclonal antibody (antibody, V domains shown)
VH: EVQLVESGGGLVKPGESLKLSCAASGFTFNSYTMSWVRQTPEKRLEWVATISSGGSYTYYPDSVKGRFTISRDNAKNTLYLQMSSLKSEDTAMYYCIRVGGLFDYWGQGTTLTVSR
VL: B1 VL with V2Q, L3M, T4I, Y70F, S76G, S92T
notes: 1F2 HC, whole heavy chain as printed: variable region with mouse IgG2a constant domains; 1F2 LC, whole light chain as printed; full-length mouse IgG2a; measured mass 148,317 Da; also called 1F2 mAb; 1F2 Ab; source: ExpiCHO-S, transfected, purified (HiTrap Protein A); copies: 2 + 2
B3: 2B1 monoclonal antibody (antibody, V domains shown)
VH: QVQLQQSGPELVKPGASVKISCKASGYSFTDYNMYWVKQSHGKSLEWIGYFDPYNGGIYYNQNFKGRATLTVDKSSSTAFMHLNSLTSEDSAVYYCARGGGWFRGFTYWGQGTLVTVSR
VL: IQMTQSTSSLSASLGDRVTISCRASQDISNYLNWYQQKPDGTLNLLIYYTSRLHSGVPSRFSGSGSGTDYSLTISNLEQEDIATYFCQQGNTLPYTFGGGTKLEIK
notes: 2B1 HC, whole heavy chain as printed: variable region with mouse IgG2a constant domains; 2B1 LC, whole light chain as printed; full-length mouse IgG2a; measured mass 149,064 Da; also called 2B1 mAb; 2B1 Ab; source: ExpiCHO-S, transfected, purified (HiTrap Protein A); copies: 2 + 2
B4: 1E7 monoclonal antibody (antibody, V domains shown)
VH: QVQLQQPAAELARPGASVKMSCRASGYTFTTYTMHWVKQRPGQGLEWIGYINPSSGYTDYNQKFRDKITLTADKSSSTAYMQLSSLTSGDSAVYYCAREDYYGQGFTYWGQGTLVTVSR
VL: B3 VL with Q2V, L43V, N44K, T92M, L93F, Y95W, I105L
notes: 1E7 HC, whole heavy chain as printed: variable region with mouse IgG2a constant domains; a predicted N-linked glycosylation site (NPS) in CDR2 is highlighted; 1E7 LC, whole light chain as printed; full-length mouse IgG2a; measured mass 149,106 Da; also called 1E7 mAb; 1E7 Ab; source: ExpiCHO-S, transfected, purified (HiTrap Protein A); copies: 2 + 2
B5: 1F2 monoclonal antibody (antibody, V domains shown)
VH: B2 VH
VL: B1 VL with V2Q, L3M, T4I, Y70F, S76G, S92T
notes: variable region of 1F2; mouse IgG2a heavy chain constant domains; mouse light chain constant domain; Full-length mouse IgG2a; also called 1F2 antibody; source: ExpiCHO-S, transfected, purified (Protein A); copies: 2 + 2
B6: 2B1 monoclonal antibody (antibody, V domains shown)
VH: B3 VH
VL: B3 VL
notes: variable region of 2B1; mouse IgG2a heavy chain constant domains; mouse light chain constant domain; Full-length mouse IgG2a; source: ExpiCHO-S, transfected, purified (Protein A); copies: 2 + 2
B7: 1E7 monoclonal antibody (antibody, V domains shown)
VH: B4 VH
VL: B3 VL with Q2V, L43V, N44K, T92M, L93F, Y95W, I105L
notes: variable region of 1E7; mouse IgG2a heavy chain constant domains; mouse light chain constant domain; Full-length mouse IgG2a; source: ExpiCHO-S, transfected, purified (Protein A); copies: 2 + 2
B8: 2E9 monoclonal antibody (antibody, V domains shown)
VH: B1 VH
VL: B1 VL
notes: variable region of 2E9; mouse IgG2a heavy chain constant domains; mouse light chain constant domain; Full-length mouse IgG2a; also called 2E9 mAb; source: ExpiCHO-S, transfected, purified (Protein A); copies: 2 + 2
B9: PeM-19 monoclonal antibody (R2-specific) (antibody, V domains shown)
VH: EVQLQQSGPELVKPGASVKIPCKASGYTFTDYNMDWVKQSHGKSLEWIGDINPNTGETIYNQKFEGKASLTVDKSSNTVYMELRSLTSEDTAVYYCARVPFYFDYWGQGTTLTVSR
VL: DIVMSQSPSSLTVSVGEKVTMSCKSSQSLLYSRDQKNYLAWYQQKPGQSPKMLIHWASTRASGVPDRFTGSGSGTDFTLTISSVKAEDLAVYYCQQYYFYPRTFGGGTKLELK
notes: variable region of PeM-19; mouse IgG2a heavy chain constant domains; mouse light chain constant domain; the methods describe the IgG2a format for the anti-pertactin antibodies in general; also called PeM-19 Ab; source: ExpiCHO-S, transfected, purified (Protein A); copies: 2 + 2

Target: T1, Mature Pertactin (Prn) (Bordetella pertussis, strain  …)
T1 construct: pertactin (Prn) of Bordetella pertussis, mature passenger domain; the legend on D1:p9 names 1DAB instead; also called wild-type Prn; wild type Prn
T1 chain: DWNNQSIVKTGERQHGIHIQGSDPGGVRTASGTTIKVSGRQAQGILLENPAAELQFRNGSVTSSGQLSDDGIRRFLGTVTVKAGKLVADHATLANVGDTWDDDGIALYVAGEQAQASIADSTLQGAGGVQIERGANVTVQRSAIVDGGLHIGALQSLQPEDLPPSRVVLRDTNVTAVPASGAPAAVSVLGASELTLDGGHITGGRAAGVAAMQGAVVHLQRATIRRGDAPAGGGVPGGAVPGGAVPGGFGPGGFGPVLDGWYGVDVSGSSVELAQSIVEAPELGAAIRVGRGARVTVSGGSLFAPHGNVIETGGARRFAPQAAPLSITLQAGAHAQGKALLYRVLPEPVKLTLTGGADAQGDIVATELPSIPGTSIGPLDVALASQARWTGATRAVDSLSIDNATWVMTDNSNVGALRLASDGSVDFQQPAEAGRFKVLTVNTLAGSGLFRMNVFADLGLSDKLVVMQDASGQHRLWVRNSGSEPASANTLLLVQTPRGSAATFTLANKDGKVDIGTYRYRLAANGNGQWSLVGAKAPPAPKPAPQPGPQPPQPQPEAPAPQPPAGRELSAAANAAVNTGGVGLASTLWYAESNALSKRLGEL
Assay: BLI; mAb (10 nM) loaded on anti-mouse IgG Fc (AMC) biosensors, dipped into Prn at 50, 25, 12.5, 6.25, 3.125 and 1.56 nM; kinetic buffer (HEPES buffer with 0.01% BSA and 0.002% Tween-20); Octet Red96; 1:1 binding model, global fit, single replicate
Conditions: both partners purified
B1 was tested, and the Kd was under 1 nM. B2 gave a Kd of under 1 nM. With B3 the Kd was under 1 nM. Binder B4 has a Kd of under 1 nM.

Target: T2, mature pertactin (Prn), wild type (Bordetella pertussis, strain  …)
T2 construct: Pertactin (Prn) of Bordetella pertussis, mature N-terminal passenger domain (63 kDa), cut from the precursor; Kept in 0.06% C10E5 detergent for native MS; also called Prn antigen; wild-type Prn
T2 chain: T1 chain
Assay: native MS; titration: fixed 2 µM mAb, Prn 0.5 µM to 8 µM, 250 mM ammonium acetate with 0.06% C10E5
Conditions: both partners purified
With B5 the “stoichiometry N” value was 2 Prn per mAb. B6 was tested, and the “stoichiometry N” value was 2 Prn per mAb. For B7, the “stoichiometry N” value was 2 Prn per mAb. B8 was tested, and the “stoichiometry N” value was 2 Prn per mAb.

Target: T3, ΔC-term Prn variant (Bordetella pertussis, strain  …, point mutant)
T3 construct: Pertactin (Prn) of Bordetella pertussis, mature passenger domain from which 64 residues at the C-terminus (with the R2 repeat region; unstructured in the X-ray structure) were truncated; also called ΔC-terminal
T3 chain: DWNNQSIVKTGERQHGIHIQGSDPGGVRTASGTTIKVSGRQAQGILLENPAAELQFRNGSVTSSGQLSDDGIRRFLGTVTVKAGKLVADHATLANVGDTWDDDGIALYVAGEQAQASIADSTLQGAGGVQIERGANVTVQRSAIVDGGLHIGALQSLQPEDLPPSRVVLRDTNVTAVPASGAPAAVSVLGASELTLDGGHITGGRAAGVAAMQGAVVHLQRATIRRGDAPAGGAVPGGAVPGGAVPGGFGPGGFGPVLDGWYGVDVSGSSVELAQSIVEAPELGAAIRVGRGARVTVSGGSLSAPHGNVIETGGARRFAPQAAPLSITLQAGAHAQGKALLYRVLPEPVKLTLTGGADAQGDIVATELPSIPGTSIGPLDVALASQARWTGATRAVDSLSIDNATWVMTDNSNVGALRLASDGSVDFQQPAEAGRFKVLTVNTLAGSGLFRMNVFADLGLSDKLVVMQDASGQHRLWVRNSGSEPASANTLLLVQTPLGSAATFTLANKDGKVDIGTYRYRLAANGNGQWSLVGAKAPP
Assay: native MS; 2 µM mAb and 2 µM Prn or Prn variant (equimolar), 250 mM ammonium acetate with 0.06% C10E5, 1 hour at room temperature, nano-ESI on Q Exactive UHMR
Conditions: both partners purified
B9: no binding (tested: 2 µM each).

— article PMC12994607, “Screening pertactin-specific antibodies and evaluating competitive epitope recognition by native mass spectrometry” (Chemical Science, 2026)
